According to paper PMC4778861, “Type One Protein Phosphatase 1 and Its Regulatory Protein Inhibitor 2 Negatively Regulate ABA Signaling” (PLoS Genetics, 2016):
Blank lines part the entries; values can stand above or below the binder they belong to.

Molecular target: T1, MBP-SnRK2.6 (Arabidopsis thaliana, UniProt Q940H6 1-362)
T1 construct: SNF1-related protein kinase 2.6 (SnRK2.6, OST1), Arabidopsis thaliana, in pMal-c2X; source: E. coli BL21 (DE3), purified (amylose resin); not shown: MBP, N-terminal, kept
T1 sequence (looked up): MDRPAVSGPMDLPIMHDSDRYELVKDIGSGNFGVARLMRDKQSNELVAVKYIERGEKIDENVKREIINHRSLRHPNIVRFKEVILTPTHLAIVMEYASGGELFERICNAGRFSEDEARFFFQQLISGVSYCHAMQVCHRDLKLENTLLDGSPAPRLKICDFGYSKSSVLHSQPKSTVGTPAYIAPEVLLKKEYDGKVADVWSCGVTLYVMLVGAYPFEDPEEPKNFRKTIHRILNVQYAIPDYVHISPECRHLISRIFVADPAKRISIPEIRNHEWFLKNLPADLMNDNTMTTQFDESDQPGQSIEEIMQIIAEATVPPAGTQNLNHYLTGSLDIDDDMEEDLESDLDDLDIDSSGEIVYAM
Test: pull-down; GST-TOPP1 or GST-AtI-2 incubated with MBP-SnRK2.6 in amylose resin, 4 hours at 4°C, washed 4 times with 1X PBS; SDS-PAGE, coomassie blue
Settings: both partners purified

binding result: binds
B1: GST-AtI-2 (natural protein, Arabidopsis thaliana, UniProt Q9LTK0 1-191, looked up)
chain: MTEPKRGRVQWDEANIVEIESNKPVRQKITEPKTPYHPMMDDDGSLSPRGRAFDECVDDMQRAEELRNVLNDAAASSSRNSSQGSGGGGWSSSDEEEEEADPMDQDEEGSGSGKNERFNAHRKAHYDEFRKVKELRSSGSFYEEEEEEDDGAKGSKSETTTNSRHTKGGNKELDATKTVSGTSSSSSPELI
notes: source: E. coli, purified (glutathione-agarose beads); not shown: GST, N-terminal, kept

binding result: binds
B2: GST-TOPP1 (enzyme, Arabidopsis thaliana, UniProt P30366 1-318, looked up)
chain: MAEKPAQEQEQKRAMEPAVLDDIIRRLVEFRNTRPGSGKQVHLSEGEIRQLCAVSKEIFLQQPNLLELEAPIKICGDIHGQYSDLLRLFEYGGFPPEANYLFLGDYVDRGKQSLETICLLLAYKIKYPENFFLLRGNHESASINRIYGFYDECKRRFNVRLWKIFTDCFNCLPVAALIDDRILCMHGGISPELKSLDQIRNIARPMDIPESGLVCDLLWSDPSGDVGWGMNDRGVSYTFGADKVAEFLEKHDMDLICRAHQVVEDGYEFFAERQLVTVFSAPNYCGEFDNAGAMMSIDESLMCSFQILKPSEKKSPFL
notes: also called GST-tagged TOPP1; source: E. coli, purified (glutathione-agarose beads); not shown: GST, N-terminal, kept
